Our source for the Sp7 gene expression levels in Saos2 cells (qPCR, relative to control antibody) values is US20130089560A1.

The assay deals with human BMPR1A, endogenous on human Saos2 cells (human) (UniProt P36894). The assay can be described thus: cell-based or functional assay.
Sequence of UniProt P36894 (P36894 24-532 limits assumed): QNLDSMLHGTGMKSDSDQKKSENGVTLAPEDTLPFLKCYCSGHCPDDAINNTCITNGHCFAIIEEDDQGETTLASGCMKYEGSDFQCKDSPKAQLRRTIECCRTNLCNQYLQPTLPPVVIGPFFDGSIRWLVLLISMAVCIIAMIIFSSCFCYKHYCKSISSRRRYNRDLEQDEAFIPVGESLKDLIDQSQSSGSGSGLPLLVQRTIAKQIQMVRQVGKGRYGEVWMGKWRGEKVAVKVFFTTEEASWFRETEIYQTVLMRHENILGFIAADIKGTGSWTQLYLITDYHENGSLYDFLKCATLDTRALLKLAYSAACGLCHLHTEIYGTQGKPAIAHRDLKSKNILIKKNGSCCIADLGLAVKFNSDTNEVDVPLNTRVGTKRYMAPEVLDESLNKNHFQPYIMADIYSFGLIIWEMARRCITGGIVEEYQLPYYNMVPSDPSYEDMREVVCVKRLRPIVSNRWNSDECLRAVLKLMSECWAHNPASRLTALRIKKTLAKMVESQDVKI

B1: anti-BMPR1A antibody 5M107 (antibody, part only; not given: light chain and constant regions, V domains shown, part only)
VH: EVQLQQSGPELVKPGTSVKISCKASGYSFTGYYMHWVKQSQVKSLEWIGRINPDNGGRTYNQIFKDKASLTVHKSSSTAYMELHSLTSDDSAVYYCTRERGQYGNYGGFSDWGQGTLVT
As to B1, the Sp7 gene expression levels in Saos2 cells (qPCR, relative to control antibody) was found to be 2.4 fold.
